Laboratory results published in publication PMC4091826 (Molecular Biology of the Cell, 2014).
No end group written: not given here.

T1: fluorescein-labeled P5 peptide (also: fluorescein label, position not given here)
T1 peptide: CALLLSAPRR


What was measured:
[1] = target: T1, fluorescein-labeled P5 peptide; experiment: fluorescence polarisation
[2] = test system: yeast cells; experiment: Growth phenotype; format: cell-based, S. cerevisiae; details: minimal medium or 5-FOA medium, serial dilutions

Molecule	substrate release upon ATP binding [1] [%]	growth phenotype, in words [2]
Ssc1 E467A suppressor S201 (E467A, D519E), purified (natural protein, S. cerevisiae, UniProt P0CS90 24-654, looked up) QSTKVQGSVIGIDLGTTNSAVAIMEGKVPKIIENAEGSRTTPSVVAFTKEGERLVGIPAKRQAVVNPENTLFATKRLIGRRFEDAEVQRDIKQVPYKIVKHSNGDAWVEARGQTYSPAQIGGFVLNKMKETAEAYLGKPVKNAVVTVPAYFNDSQRQATKDAGQIVGLNVLRVVNEPTAAALAYGLEKSDSKVVAVFDLGGGTFDISILDIDNGVFEVKSTNGDTHLGGEDFDIYLLREIVSRFKTETGIDLENDRMAIQRIREAAEKAKIELSSTVSTEINLPFITADASGPKHINMKFSRAQFETLTAPLVKRTVDPVKKALKDAGLSTSDISEVLLVGGMSRMPKVVETVKSLFGKDPSKAVNPDEAVAIGAAVQGAVLSGEVTDVLLLDVTPLSLGIETLGGVFTRLIPRNTTIPTKKSQIFSTAAAGQTSVEIRVFQGARELVRDNKLIGNFTLAGIPPAPKGVPQIEVTFDIDADGIINVSARDKATNKESSITVAGSSGLSENEIEQMVNDAEKFKSQDEARKQAIETANKADQLANDTENSLKEFEGKVDKAEAQKVRDQITSLKELVARVQGGEEVNAEELKTKTEELQTSSMKLFEQLYKNDSNNNNNNNGNNAESGETKQ	> 50	
E467A-D416R (protein, UniProt P0CS90 24-654, looked up, variant E467A D416R) Import motor subunit, …: QSTKVQGSVIGIDLGTTNSAVAIMEGKVPKIIENAEGSRTTPSVVAFTKEGERLVGIPAKRQAVVNPENTLFATKRLIGRRFEDAEVQRDIKQVPYKIVKHSNGDAWVEARGQTYSPAQIGGFVLNKMKETAEAYLGKPVKNAVVTVPAYFNDSQRQATKDAGQIVGLNVLRVVNEPTAAALAYGLEKSDSKVVAVFDLGGGTFDISILDIDNGVFEVKSTNGDTHLGGEDFDIYLLREIVSRFKTETGIDLENDRMAIQRIREAAEKAKIELSSTVSTEINLPFITADASGPKHINMKFSRAQFETLTAPLVKRTVDPVKKALKDAGLSTSDISEVLLVGGMSRMPKVVETVKSLFGKDPSKAVNPDEAVAIGAAVQGAVLSGEVTDVLLLRVTPLSLGIETLGGVFTRLIPRNTTIPTKKSQIFSTAAAGQTSVEIRVFQGARELVRDNKLIGNFTLAGIPPAPKGVPQIEVTFDIDADGIINVSARDKATNKDSSITVAGSSGLSENEIEQMVNDAEKFKSQDEARKQAIETANKADQLANDTENSLKEFEGKVDKAEAQKVRDQITSLKELVARVQGGEEVNAEELKTKTEELQTSSMKLFEQLYKNDSNNNNNNNGNNAESGETKQ		semidominant phenotype
S1-D519E: suppressor S1-D519E subcloned into the E467A-D411R backbone (protein, left off: His6, end not stated, state not stated) QSTKVQGSVIGIDLGTTNSAVAIMEGKVPKIIENAEGSRTTPSVVAFTKEGERLVGIPAKRQAVVNPENTLFATKRLIGRRFEDAEVQRDIKQVPYKIVKHSNGDAWVEARGQTYSPAQIGGFVLNKMKETAEAYLGKPVKNAVVTVPAYFNDSQRQATKDAGQIVGLNVLRVVNEPTAAALAYGLEKSDSKVVAVFDLGGGTFDISILDIDNGVFEVKSTNGDTHLGGEDFDIYLLREIVSRFKTETGIDLENDRMAIQRIREAAEKAKIELSSTVSTEINLPFITADASGPKHINMKFSRAQFETLTAPLVKRTVDPVKKALKDAGLSTSDISEVLLVGGMSRMPKVVETVKSLFGKDPSKAVNPDEAVAIGAAVQGAVLSGEVTDVLLLDVTPLSLGIETLGGVFTRLIPRNTTIPTKKSQIFSTAAAGQTSVEIRVFQGARELVRDNKLIGNFTLAGIPPAPKGVPQIEVTFDIDADGIINVSARDKATNKESSITVAGSSGLSENEIEQMVNDAEKFKSQDEARKQAIETANKADQLANDTENSLKEFEGKVDKAEAQKVRDQITSLKELVARVQGGEEVNAEELKTKTEELQTSSMKLFEQLYKNDSNNNNNNNGNNAESGETKQ		significant growth rescue of the E467A-D411R–associated lethality at different temperatures on 5-FOA medium
S7-N508T: suppressor S7-N508T subcloned into the E467A-D411R backbone (protein, left off: His6, end not stated, state not stated) QSTKVQGSVIGIDLGTTNSAVAIMEGKVPKIIENAEGSRTTPSVVAFTKEGERLVGIPAKRQAVVNPENTLFATKRLIGRRFEDAEVQRDIKQVPYKIVKHSNGDAWVEARGQTYSPAQIGGFVLNKMKETAEAYLGKPVKNAVVTVPAYFNDSQRQATKDAGQIVGLNVLRVVNEPTAAALAYGLEKSDSKVVAVFDLGGGTFDISILDIDNGVFEVKSTNGDTHLGGEDFDIYLLREIVSRFKTETGIDLENDRMAIQRIREAAEKAKIELSSTVSTEINLPFITADASGPKHINMKFSRAQFETLTAPLVKRTVDPVKKALKDAGLSTSDISEVLLVGGMSRMPKVVETVKSLFGKDPSKAVNPDEAVAIGAAVQGAVLSGEVTDVLLLDVTPLSLGIETLGGVFTRLIPRNTTIPTKKSQIFSTAAAGQTSVEIRVFQGARELVRDNKLIGNFTLAGIPPAPKGVPQIEVTFDIDADGIITVSARDKATNKDSSITVAGSSGLSENEIEQMVNDAEKFKSQDEARKQAIETANKADQLANDTENSLKEFEGKVDKAEAQKVRDQITSLKELVARVQGGEEVNAEELKTKTEELQTSSMKLFEQLYKNDSNNNNNNNGNNAESGETKQ		significant growth rescue of the E467A-D411R–associated lethality at different temperatures on 5-FOA medium
S2-V524I: suppressor S2-V524I subcloned into the E467A-D411R backbone (protein, left off: His6, end not stated, state not stated) QSTKVQGSVIGIDLGTTNSAVAIMEGKVPKIIENAEGSRTTPSVVAFTKEGERLVGIPAKRQAVVNPENTLFATKRLIGRRFEDAEVQRDIKQVPYKIVKHSNGDAWVEARGQTYSPAQIGGFVLNKMKETAEAYLGKPVKNAVVTVPAYFNDSQRQATKDAGQIVGLNVLRVVNEPTAAALAYGLEKSDSKVVAVFDLGGGTFDISILDIDNGVFEVKSTNGDTHLGGEDFDIYLLREIVSRFKTETGIDLENDRMAIQRIREAAEKAKIELSSTVSTEINLPFITADASGPKHINMKFSRAQFETLTAPLVKRTVDPVKKALKDAGLSTSDISEVLLVGGMSRMPKVVETVKSLFGKDPSKAVNPDEAVAIGAAVQGAVLSGEVTDVLLLDVTPLSLGIETLGGVFTRLIPRNTTIPTKKSQIFSTAAAGQTSVEIRVFQGARELVRDNKLIGNFTLAGIPPAPKGVPQIEVTFDIDADGIINVSARDKATNKDSSITIAGSSGLSENEIEQMVNDAEKFKSQDEARKQAIETANKADQLANDTENSLKEFEGKVDKAEAQKVRDQITSLKELVARVQGGEEVNAEELKTKTEELQTSSMKLFEQLYKNDSNNNNNNNGNNAESGETKQ		significant growth rescue of the E467A-D411R–associated lethality at different temperatures on 5-FOA medium
Ssc1 E467A suppressor S202 (E467A, V524I), purified (natural protein, S. cerevisiae, UniProt P0CS90 24-654, looked up) QSTKVQGSVIGIDLGTTNSAVAIMEGKVPKIIENAEGSRTTPSVVAFTKEGERLVGIPAKRQAVVNPENTLFATKRLIGRRFEDAEVQRDIKQVPYKIVKHSNGDAWVEARGQTYSPAQIGGFVLNKMKETAEAYLGKPVKNAVVTVPAYFNDSQRQATKDAGQIVGLNVLRVVNEPTAAALAYGLEKSDSKVVAVFDLGGGTFDISILDIDNGVFEVKSTNGDTHLGGEDFDIYLLREIVSRFKTETGIDLENDRMAIQRIREAAEKAKIELSSTVSTEINLPFITADASGPKHINMKFSRAQFETLTAPLVKRTVDPVKKALKDAGLSTSDISEVLLVGGMSRMPKVVETVKSLFGKDPSKAVNPDEAVAIGAAVQGAVLSGEVTDVLLLDVTPLSLGIETLGGVFTRLIPRNTTIPTKKSQIFSTAAAGQTSVEIRVFQGARELVRDNKLIGNFTLAGIPPAPKGVPQIEVTFDIDADGIINVSARDKATNKDSSITIAGSSGLSENEIEQMVNDAEKFKSQDEARKQAIETANKADQLANDTENSLKEFEGKVDKAEAQKVRDQITSLKELVARVQGGEEVNAEELKTKTEELQTSSMKLFEQLYKNDSNNNNNNNGNNAESGETKQ	> 50	
Ssc1 E467A suppressor S203 (E467A, D519Y), purified (natural protein, S. cerevisiae, UniProt P0CS90 24-654, looked up) QSTKVQGSVIGIDLGTTNSAVAIMEGKVPKIIENAEGSRTTPSVVAFTKEGERLVGIPAKRQAVVNPENTLFATKRLIGRRFEDAEVQRDIKQVPYKIVKHSNGDAWVEARGQTYSPAQIGGFVLNKMKETAEAYLGKPVKNAVVTVPAYFNDSQRQATKDAGQIVGLNVLRVVNEPTAAALAYGLEKSDSKVVAVFDLGGGTFDISILDIDNGVFEVKSTNGDTHLGGEDFDIYLLREIVSRFKTETGIDLENDRMAIQRIREAAEKAKIELSSTVSTEINLPFITADASGPKHINMKFSRAQFETLTAPLVKRTVDPVKKALKDAGLSTSDISEVLLVGGMSRMPKVVETVKSLFGKDPSKAVNPDEAVAIGAAVQGAVLSGEVTDVLLLDVTPLSLGIETLGGVFTRLIPRNTTIPTKKSQIFSTAAAGQTSVEIRVFQGARELVRDNKLIGNFTLAGIPPAPKGVPQIEVTFDIDADGIINVSARDKATNKYSSITVAGSSGLSENEIEQMVNDAEKFKSQDEARKQAIETANKADQLANDTENSLKEFEGKVDKAEAQKVRDQITSLKELVARVQGGEEVNAEELKTKTEELQTSSMKLFEQLYKNDSNNNNNNNGNNAESGETKQ	> 50	
Ssc1 E467A suppressor S204 (E467A, D519N), purified (natural protein, S. cerevisiae, UniProt P0CS90 24-654, looked up) QSTKVQGSVIGIDLGTTNSAVAIMEGKVPKIIENAEGSRTTPSVVAFTKEGERLVGIPAKRQAVVNPENTLFATKRLIGRRFEDAEVQRDIKQVPYKIVKHSNGDAWVEARGQTYSPAQIGGFVLNKMKETAEAYLGKPVKNAVVTVPAYFNDSQRQATKDAGQIVGLNVLRVVNEPTAAALAYGLEKSDSKVVAVFDLGGGTFDISILDIDNGVFEVKSTNGDTHLGGEDFDIYLLREIVSRFKTETGIDLENDRMAIQRIREAAEKAKIELSSTVSTEINLPFITADASGPKHINMKFSRAQFETLTAPLVKRTVDPVKKALKDAGLSTSDISEVLLVGGMSRMPKVVETVKSLFGKDPSKAVNPDEAVAIGAAVQGAVLSGEVTDVLLLDVTPLSLGIETLGGVFTRLIPRNTTIPTKKSQIFSTAAAGQTSVEIRVFQGARELVRDNKLIGNFTLAGIPPAPKGVPQIEVTFDIDADGIINVSARDKATNKNSSITVAGSSGLSENEIEQMVNDAEKFKSQDEARKQAIETANKADQLANDTENSLKEFEGKVDKAEAQKVRDQITSLKELVARVQGGEEVNAEELKTKTEELQTSSMKLFEQLYKNDSNNNNNNNGNNAESGETKQ	> 50	
